The test system of data set [1] is HeLa Kyoto. In words: melting temperature (median over replicates), in situ; higher = more thermally stable.
The test system of data set [2] is HeLa Kyoto. In words: solubility in G1/S (NP-40 vs SDS abundance) (log2 ratio); higher = more soluble. Particulars: cell cycle stage: G1/S.
In data set [3] the test system is HeLa Kyoto. In words: solubility change mitosis vs G1/S (difference of NP-40 vs SDS log2 ratios) (log2 ratio difference); higher = more soluble in mitosis.
Data set [4] concerns HeLa Kyoto. In words: thermal stability score vs G1/S (z-score of summed log2 fold changes over temperatures); higher = more thermally stable than in G1/S.
Where [5] appears, read: cell cycle stage: early G1 (4.5 h after nocodazole release).

The values below come from the supplement of paper PMC5998384.
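Throughout, for melting temperature (median over replicates), in situ: HeLa Kyoto cells synchronized by double thymidine or nocodazole block, proteins quantified by TMT10plex mass spectrometry, three independent biological replicates.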
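Throughout, for solubility change mitosis vs G1/S (difference of NP-40 vs SDS log2 ratios): synchronized HeLa Kyoto cells (double thymidine block for G1/S, nocodazole release for mitosis), protein amounts in NP-40 versus SDS lysates quantified by mass spectrometry, three biological replicates.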
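Throughout, for solubility in G1/S (NP-40 vs SDS abundance): HeLa Kyoto cells arrested at G1/S by double thymidine block, proteins quantified by TMT10plex mass spectrometry in mild NP-40 versus SDS extracts, three biological replicates.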
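Throughout, for thermal stability score vs G1/S (z-score of summed log2 fold changes over temperatures): synchronized HeLa Kyoto cells, proteins quantified by TMT10plex mass spectrometry, three biological replicates, mitosis taken 0.5 h after nocodazole release, G1/S directly after double thymidine block.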

Regarding “MAGGGAGDPGLGAAAAPAPETREHLFKVLVIGELGVGKTSIIKRYVHQLFSQHYRATIGVDFALKVLNWDSRTLVRLQLWDIAGQERFGNMTRVYYKEAVGAFVVFDISRSSTFEAVLKWKSDLDSKVHLPNGSPIPAVLLANKCDQNKDSSQSPSQVDQFCKEHGFAGWFETSAKDNINIEEAARFLVEKILVNHQSFPNEENDVDKIKLDQETLRAENKSQCC [RAB32]”, the melting temperature came to 51.8 °C with HeLa Kyoto [1] (cell cycle stage: G1/S) and 53.4 °C in the data set on HeLa Kyoto [1] (cell cycle stage: mitosis). Besides, the “solubility in G1/S (log2)” value in the data set with HeLa Kyoto [2] was -0.00216. In addition, the “solubility change mitosis (log2)” value in the data set on HeLa Kyoto [3] was -0.0818. Moreover, the thermal stability score came out at 4.46 in the data set on HeLa Kyoto [4] (setting [5]) and 2.79 in the data set with HeLa Kyoto [4] (cell cycle stage: mitosis).

For the sequence “MAGIAAKLAKDREAAEGLGSHDRAIKYLNQDYEALRNECLEAGTLFQDPSFPAIPSALGFKELGPYSSKTRGIEWKRPTEICADPQFIIGGATRTDICQGALGDCWLLAAIASLTLNEEILARVVPLNQSFQENYAGIFHFQFWQYGEWVEVVVDDRLPTKDGELLFVHSAEGSEFWSALLEKAYAKINGCYEALSGGATTEGFEDFTGGIAEWYELKKPPPNLFKIIQKALQKGSLLGCSIDITSAADSEAITFQKLVKGHAYSVTGAEEVESNGSLQKLIRIRNPWGEVEWTGRWNDNCPSWNTIDPEERERLTRRHEDGEFWMSFSDFLRHYSRLEICNLTPDTLTSDTYKKWKLTKMDGNWRRGSTAGGCRNYPNTFWMNPQYLIKLEEEDEDEEDGESGCTFLVGLIQKHRRRQRKMGEDMHTIGFGIYEVPEELSGQTNIHLSKNFFLTNRARERSDTFINLREVLNRFKLPPGEYILVPSTFEPNKDGDFCIRVFSEKKADYQAVDDEIEANLEEFDISEDDIDDGFRRLFAQLAGEDAEISAFELQTILRRVLAKRQDIKSDGFSIETCKIMVDMLDSDGSGKLGLKEFYILWTKIQKYQKIYREIDVDRSGTMNSYEMRKALEEAGFKMPCQLHQVIVARFADDQLIIDFDNFVRCLVRLETLFKIFKQLDPENTGTIELDLISWLCFSVL [CAPN2]”, the figures for the melting temperature in the data set on HeLa Kyoto [1] (cell cycle stage: G1/S) and in the data set on HeLa Kyoto [1] (cell cycle stage: mitosis) were 55.4 °C and 54.9 °C, respectively. For the same sequence, the “solubility in G1/S (log2)” value with HeLa Kyoto [2] is -0.0212. Besides, the “solubility change mitosis (log2)” value in the data set on HeLa Kyoto [3] is -0.183. In addition, the values for the thermal stability score with HeLa Kyoto [4] (setting [5]) and with HeLa Kyoto [4] (cell cycle stage: mitosis) were -0.784 and -1.57, respectively.

As to “MAGIIKKQILKHLSRFTKNLSPDKINLSTLKGEGELKNLELDEEVLQNMLDLPTWLAINKVFCNKASIRIPWTKLKTHPICLSLDKVIMEMSTCEEPRSPNGPSPIATASGQSEYGFAEKVVEGISVSVNSIVIRIGAKAFNASFELSQLRIYSVNAHWEHGDLRFTRIQDPQRGEVLTFKEINWQMIRIEADATQSSHLEIMCAPVRLITNQSKIRVTLKRRLKDCNVIATKLVLILDDLLWVLTDSQLKAMVQYAKSLSEAIEKSTEQRKSMAPEPTQSSTVVASAQQVKTTQTSNAPDVNDAIVKLFNDFDVKETSHHLVISHLDLHICDDIHAKEKESNRRITGGAMQLSFTQLTIDYYPYHKAGDSCNHWMYFSDATKTKNGWANELLHEFECNVEMLKQAVKDHNVGSPPKSPTHASPQHTQTEKDYPLKGTCRTPSVLSQQSKAKLMSSSVVVRLADFNIYQVSTAEQCRSSPKSMICCNKKSLYLPQEMSAVYIEFTEYYYPDGKDFPIPSPNLYSQLNALQFTVDERSILWLNQFLLDLKQSLNQFMAVYKLNDNSKSDEHVDVRVDGLMLKFVIPSEVKSECHQDQPRAISIQSSEMIATNTRHCPNCRHSDLEALFQDFKDCDFFSKTYTSFPKSCDNFNLLHPIFQRHAHEQDTKMHEIYKGNITPQLNKNTLKTSAATDVWAVYFSQFWIDYEGMKSGKGRPISFVDSFPLSIWICQPTRYAESQKEPQTCNQVSLNTSQSESSDLAGRLKRKKLLKEYYSTESEPLTNGGQKPSSSDTFFRFSPSSSEADIHLLVHVHKHVSMQINHYQYLLLLFLHESLILLSENLRKDVEAVTGSPASQTSICIGILLRSAELALLLHPVDQANTLKSPVSESVSPVVPDYLPTENGDFLSSKRKQISRDINRIRSVTVNHMSDNRSMSVDLSHIPLKDPLLFKSASDTNLQKGISFMDYLSDKHLGKISEDESSGLVYKSGSGEIGSETSDKKDSFYTDSSSILNYREDSNILSFDSDGNQNILSSTLTSKGNETIESIFKAEDLLPEAASLSENLDISKEETPPVRTLKSQSSLSGKPKERCPPNLAPLCVSYKNMKRSSSQMSLDTISLDSMILEEQLLESDGSDSHMFLEKGNKKNSTTNYRGTAESVNAGANLQNYGETSPDAISTNSEGAQENHDDLMSVVVFKITGVNGEIDIRGEDTEICLQVNQVTPDQLGNISLRHYLCNRPVGSDQKAVIHSKSSPEISLRFESGPGAVIHSLLAEKNGFLQCHIENFSTEFLTSSLMNIQHFLEDETVATVMPMKIQVSNTKINLKDDSPRSSTVSLEPAPVTVHIDHLVVERSDDGSFHIRDSHMLNTGNDLKENVKSDSVLLTSGKYDLKKQRSVTQATQTSPGVPWPSQSANFPEFSFDFTREQLMEENESLKQELAKAKMALAEAHLEKDALLHHIKKMTVE [UHRF1BP1L]”, the figures for the melting temperature in the data set with HeLa Kyoto [1] (cell cycle stage: G1/S) and with HeLa Kyoto [1] (cell cycle stage: mitosis) were 53.9 °C and 53.8 °C, respectively. The “solubility in G1/S (log2)” value in the data set on HeLa Kyoto [2] was -0.0678. Further, in the data set on HeLa Kyoto [3], the “solubility change mitosis (log2)” value is -0.181. Further, the values for the thermal stability score with HeLa Kyoto [4] (setting [5]) and in the data set on HeLa Kyoto [4] (cell cycle stage: mitosis) were -1.27 and -1.34, respectively.

In the case of “MAGIIKKQILKHLSRFTKNLSPDKINLSTLKGEGQLTNLELDEEVLQNVLELPTWLAITRVYCNRASIRIQWTKLKTHPICLCLDKVEVEMKTCEDPRPPNGQSPIALASGQSEYGFAEKVVEGMFIIVNSITIKIHSKAFHASFELWQLQGYSVNPNWQQSDLRLTRITDPCRGEVLTFKEITWQTLRIEADATDNGDQDPVTTPLRLITNQGRIQIALKRRTKDCNVISSKLMFLLDDLLWVLTDSQLKAMMKYAESLSEAMEKSAHQRKSLAPEPVQITPPAPSAQQSWAQAFGGSQGNSNSSSSRLSQYFEKFDVKESSYHLLISRLDLHICDDSQSREPGVSANRLMGGAMQLTFRKMAFDYYPFHWAGDSCKHWVRHCEAMETRGQWAQKLVMEFQSKMEKWHEETGLKPPWHLGVDSLFRRKADSLSSPRKNPLERSPSQGRQPAFQPPAWNRLRSSCMVVRVDDLDIHQVSTAGQPSKKPSTLLSCSRKLHNLPTQVSAIHIEFTEYYFPDNQELPVPCPNLYIQLNGLTFTMDPVSLLWGNLFCLDLYRSLEQFKAIYKLEDSSQKDEHLDIRLDAFWLKVSFPLEKRERAELHRPQALVFSASGMIATNTRHAPHCSCSDLQSLFRGFAAAEFFHSNYDHFPKVPGGFSLLHMLFLHHAFQMDSCLPQPNTLPPQRPKASWDLWSVHFTQISLDFEGTENFKGHTLNFVAPFPLSIWACLPLRWQQAQARKLLLASEGRLKPSASFGSPVQSEALAPDSMSHPRSKTEHDLKSLSGLTEVMEILKEGSSGMDNKGPLTELEDVADVHMLVHSPAHVRVRLDHYQYLALLRLKEVLQRLQEQLTKDTESMTGSPLQNQTACIGVLFPSAEVALLMHPAPGAVDADSAGSDSTSLVDSELSPSEDRELKSDASSDQGPASPEKVLEESSIENQDVSQERPHSNGELQDSGPLAQQLAGKGHEAVESLQAKKLSRTQASSSPAALKPPAGRETAVNGQGELIPLKNIEGELSSAIHMTKDATKEALHATMDLTKEAVSLTKDAFSLGRDRMTSTMHKMLSLPPAKEPMAKTDEGVAAPVSGGAARLRFFSMKRTVSQQSFDGVSLDSSGPEDRISVDSDGSDSFVMLLESESGPESVPPGSLSNVSDNAGVQGSPLVNNYGQGSPAANSSVSPSGEDLIFHPVSVLVLKVNEVSFGIEVRGEDLTVALQAEELTLQQLGTVGLWQFLHGQCPGTCFQESSTLKTGHIRPAVGLRFEVGPGAAVHSPLASQNGFLHLLLHGCDLELLTSVLSGLGPFLEDEEIPVVVPMQIELLNSSITLKDDIPPIYPTSPGPIPITLAMEHVVLKRSDDGVFHIGAAAQDKPSAEVLKSEKRQPPKEQVFLVPTGEVFEQQVKELPILQKELIETKQALANANQDKEKLLQEIRKYNPFFEL [UHRF1BP1]”, the melting temperature in the data set with HeLa Kyoto [1] (cell cycle stage: G1/S) turned out to be 54.1 °C; in the data set with HeLa Kyoto [1] (cell cycle stage: mitosis) it was 53.5 °C. For the same sequence, the “solubility in G1/S (log2)” value in the data set on HeLa Kyoto [2] is -0.0773. The “solubility change mitosis (log2)” value with HeLa Kyoto [3] is -0.154. In addition, the thermal stability score was -1.63 with HeLa Kyoto [4] (setting [5]) and -1.87 in the data set with HeLa Kyoto [4] (cell cycle stage: mitosis).
